Laboratory results from patent US20210403586A1, “MUTANT OF RANKL AND PHARMACEUTICAL COMPOSITION COMPRISING SAME FOR PREVENTING OR TREATING OSTEOPOROSIS” (INDUSTRY-ACADEMIC COOPERATION FOUNDATION CHOSUN UNIVERSITY, priority 2018, published 2021).
Entries after “also recorded” stand apart in the source; their conditions may differ.

B1: wtRANKL: wild-type RANKL (mouse; purified, or from Amgen in Example 2) (protein, UniProt O35235 139-316, looked up)
Tumor necrosis factor ligand …: FSGAPAMMEGSWLDVAQRGKPEAQPFAHLTINAASIPSGSHKVTLSSWYHDRGWAKISNMTLSNGKLRVNQDGFYYLYANICFRHHETSGSVPTDYLQLMVYVVKTSIKIPSSHNLMKGGSTKNWSGNSEFHFYSINVGGFFKLRAGEEISIQVSNPSLLDPDQDATYFGAFKVQDID
B2: sRANKL: soluble RANKL; R&D Systems (protein)
chain: B1 Tumor necrosis factor ligand …

Key:
[1] = system: bone marrow-derived monocytes (BMMs); test: TRAP analysis of osteoclastogenesis induced by RANKL variants in BMMs; type: cell-based, mouse; conditions: RANKL-treated primary BMM
Procedure: The RANKL-RANK binding sites are K180, D189, R190, H223, H224, which are conserved between humans and mice. We selected 4 mutant RANKLs to be purified. Their size corresponded to the wild type RANKL (39 kDa) (FIG. 2B). Tartrate-resistant acid […] (TRAP) activity was absent for all RANKLs even at 150 ng/mL (FIG. 2C, D).
4-week old male BALB/c mice were purchased from Orient Bio (Gwangju, Korea) and kept in an animal facility approved by the Chosun University Animal Management Committee (IACUC2017-A0002). After obtaining bone marrow cells from mice, bone marrow mononuclear cells were seeded into 96-well plates (1 Y 10^4 cells/well), and in the absence or presence of various concentrations of compounds, incubated with M-CSF (100 ng/mL) overnight before stimulation with RANKL (50 ng/well). The medium was replaced every other days. 6 days later, the cells were fixed with 4% paraformaldehyde, permeated in 0.1% Triton X-100, and washed with PBS. Then, TRAP activity (Sigma-Aldrich, St. Louis, Mo., USA) staining was performed. TRAP-positive multinuclear cells containing 5 or more nuclei were counted as osteoclasts.
To evaluate the effect of mtRANKL on osteoclastogenesis, TRAP analysis was performed on RANKL-treated primary bone marrow-derived macrophages (BMM) by the method described in Reference Example 2, and the results are shown in FIGS. 4B and 4C.

BMMs [2] = test: Bone-resorption assay (Osteo Assay Surface plates); type: cell-based, mouse; conditions: 6 days, mRANKL-MT3 150 ng/mL
Procedure: (§1) We used bone-resorption and F-actin ring formation assays to investigate osteoclast activity. To observe bone resorption in vitro, BMMs were cultured in Corning Osteo Assay Surface 96-well Multiple Well Plates (Sigma) with 30 ng/mL M-CSF and 75 ng/mL sRANKL (soluble RANKL; R&D Systems) or isolated RANKL for 6 days. Then, the plates were washed with pure water. To monitor actin ring formation, BMMs were grown on glass slides. After culture, the cells were fixed with 4% formalin, permeabilized with 0.5% Triton X100 in PBS for 5 min at room temperature, and incubated with 0.5 mg/mL TRITC-labelled phalloidin for 30 min. The cells were then rinsed with PBS. F-actin rings were visualized using a fluorescence ECLIPSE Ts2R microscope (Nikon, Tokyo, Japan).

BMMs [3] = test: F-actin ring formation assay; type: cell-based, mouse; conditions: mRANKL-MT3 150 ng/mL
Procedure: as §1

BALB/c mice = test: Bone destruction by injected mtRANKL, micro-CT; type: in vivo, mouse; conditions: subcutaneous 1.0 mg/kg three times a week
Procedure: (§2) The right femur of each mouse subjected to each experiment was incised and CT imaging was performed using a Quantum GX pCT imaging system (PerkinElmer, Hopkinton, Mass., USA) located at the Korea Basic Science Institute in Gwangju. As for the X-ray source, the field of view was set to 45 mm, 90 kV and […] (voxel size, 90 μm; scanning time, 14 minutes). CT imaging was performed using a Quantum GX 3D Viewer software. After scanning, image segmentation was performed in Analyze (AnalyzeDirect, Overland Park, Kans., USA). Briefly, the legs were segmented using semi-automatic and manual tools (e.g., object extractor, area expansion, and object separator) using volume editing tools. Then, a 3D rendering of the leg was created, and bone mineral density (BMD), bone volume (BV), bone volume percentage (%), and trabecular thickness were calculated using the ROI tools.
To investigate the bone-destructive effect of mtRANKL, 4-week-old male BALB/c mice (Orient Bio) were placed in a cage capable of accommodating up to 4 animals in a light-controlled environment ([…]) and provided with autoclaved water and both whole and powdered rodent diet (Purina, St. Louis, Mo., USA). Starting from 6 weeks of age, 9 mice were randomly divided into three groups, and each group was subcutaneously injected with wild-type RANKL (Amgen, Thousand Oaks, Calif., USA), mtRANKL purified in Reference Example 2, and saline three times a week (1.0 mg/kg). The trabecular bone in femoral neck was examined by Micro-CT analysis described in Reference Example 6.

wtRANKL-induced mouse = test: mtRANKL immunization in wtRANKL-induced osteoporosis mice, micro-CT; type: in vivo
Procedure: as §2
(§3) 17-week-old […] BALB/c mice were equally divided into 3 groups. The group was divided into a negative control group in which PBS was intraperitoneally injected, a group in which only wtRANKL was injected, and a group in which wtRANKL was injected after immunization with mtRANKL for 52 days. mtRANKL was injected after mixing with an aluminum hydroxide adjuvant. The immunization process started with 1st immunization of mtRANKL at 52 days, 2nd immunization at 39 days, 3rd immunization at 14 days each before injection of wtRANKL, and a total of 3 immunizations was performed. The amount of mtRANKL was 0.2 mg per mouse.
(§4) After 52 days, PBS was injected into the negative control group and wtRANKL was injected into the other two groups. Next day, wtRANKL was injected once more. wtRANK was subcutaneously injected (2.0 mg/kg). Serum was collected to determine the titer of anti-RANKL antibody. Then, after extracting tibias, the adhesive soft tissues of tibias were removed.
To examine whether RANKL has a bone destruction effect when RANKL was injected after immunization with mtRANKL, micro-CT analysis was performed by the method of Reference Example 6.

RANKL = test: ELISA of serum RANKL levels; type: in vivo, mouse; conditions: wtRANKL 2.0 mg/kg s.c. to non-immunized mice, or to mice immunized with mtRANKL
Procedure: A commercially available enzyme immunoassay kit (R & D Systems, Minn., USA) was used to measure RANKL levels in the serum of mice according to the manufacturer's protocol. Absorbance (450 nm) was measured in a colorimetric microplate reader (BioTek, Winooski, USA). The reading of the absorbance was then subtracted from the reading at 570 nm.
as §3, §4

RANK and LGR4 signaling [4] = test: Western blots of RANK and LGR4 signaling pathway proteins, RANKL variants; type: cell-based, mouse; conditions: BMMs, Western blot
Procedure: (§5) Proteins were separated by SDS-PAGE and electropermeated into a nitrocellulose membrane (Bio-Rad). After blocking the membrane with 5% (weight/volume) skim milk in TBST [10 mM Tris (pH 7.5), 150 mM NaCl, 0.1% (vol/vol) Tween 20], each mouse serum for primary antibody in the blocking solution was examined. The membrane was washed three times with Tris buffered saline. […] peroxidase (HRP)-conjugated secondary antibody was diluted 1:5000 with TBST in 1% (wt/vol) skim milk powder. ECL_system (Amersham Pharmacia Biotech) was used as the membrane.
Primary antibodies: AKT (Cell Signaling Technology, 1:1000), phospho-AKT (Cell Signaling Technology, #9271S, 1:1000), p38 (Cell Signaling Technology, 9212S, 1:1000), phospho-p38 (Cell Signaling Technology, #9211S, 1:1000), ERK (Cell Signaling Technology, 9102S, 1:1000), phospho-ERK (Cell Signaling Technology, #9101S, 1:1000), JNK (Cell Signaling Technology, 9252S, 1:1000), phosphoJNK (Cell Signaling Technology, #9251S, 1:1000), GSK-3β (Cell Signaling Technology, 9315S, 1:1000), phosphoGSK-3β (Cell Signaling Technology, #9336S, 1:1000), Src (Cell Signaling Technology, 2108S, 1:1000), phosphoSrc (Cell Signaling Technology, #2105S, 1:1000), NF-KB p65 (Cell Signaling Technology, #3034, 1:1000), phosphop65 (Cell Signaling Technology, #3031, 1:1000), RANK (Cell Signaling Technology, 4845S, 1:1000), Gaq (Cell Signaling Technology, 14373S, 1:1000), LGR4 (MyBioSource, MBS468030, 1:500), 20112360C-1, and GAPDH (Santa-Cruz Biotechnology, 1:2500).
To investigate the interaction of mRANKL variants and RANK, the co-immunoprecipitation (Co-IP) assays were carried out using mRANKL-WT/mRANKL-MT3 and RANK/LGR4 (FIG. 12A). In addition, wild-type RANKL induced MAPK, AKT, NF-κB p65, and GSK-3 phosphorylation, which is involved in LGR4 signaling (FIG. 12B).

isolated spleen cells = test: Th1/Th2 cytokine secretion of isolated spleen cells; type: cell-based, mouse; conditions: culture supernatant of Sham and IM splenocytes stimulated with sRANKL or mRANKL-MT3
Text: To determine whether mRANKL-MT3 immunization influences Th1 and Th2 cytokine production, we evaluated the effects of mRANKL-MT3 on IL-4 and IL-10 secretion, which are markers for Th2 responses, and IFN-γ, a marker for Th1 responses, in the culture supernatant of isolated spleen cells stimulated with sRANKL or mRANKL-MT3 (FIG. 8C).

sRANKL-induced mice = test: Anti-RANKL IgGs in sRANKL-induced mice; type: in vivo, mouse
RANK and LGR4 signaling [5] = test: Anti-RANKL on RANK and LGR4 signaling in BMMs; type: cell-based, mouse; conditions: Western blot, sRANKL
Procedure: as §5, with “membrane. […]” for “membrane.”
We verified that anti-RANKL suppressed RANK and LGR4 signaling in a time-dependent manner (FIG. 13A). […] In addition, NFATc1 nuclear translocation was not detected by Western blot analysis or confocal microscopy in anti-RANKL-treated BMMs in the presence of sRANKL compared with control IgG (FIG. 13B, 13C).

[6] = wtRANKL-injected mice vs mtRANKL-immunized mice with wtRANKL injection

Molecule	number of TRAP-positive multinuclear osteoclasts / osteoclast differentiation [1]	resorption pits (BMMs [2])	F-actin ring formation (BMMs [3])	BMD, bone volume (BV), percentage (%) of bone volume, and trabecular thickness (BALB/c mice)	trabecular bone by Micro-CT (osteoporosis) (BALB/c mice)	bone volume and percentage of bone volume (wtRANKL-induced mouse; compared with PBS-treated mice)	BMD of tibias (wtRANKL-induced mouse; [6]) [mg/mL]	trabecular bone architecture of proximal tibias (micro-CT) (wtRANKL-induced mouse; [6])	level of RANKL in the blood (ELISA) (RANKL)	GSK-3 phosphorylation (RANK and LGR4 signaling [4])	MAPK, AKT, and NF-κB p65 phosphorylation (RANK and LGR4 signaling [4])	IFN-γ levels (isolated spleen cells)	IL-4 and IL-10 secretion (isolated spleen cells)	trabecular bone architecture of VOI from the distal femur (micro-CT) (sRANKL-induced mice; sRANKL-induced mice)	BMD, BV/TV, and Tb.N. values (sRANKL-induced mice; sRANKL-induced mice, quantitative micro-CT)	bone histomorphometric analysis and TRAP staining of femur (sRANKL-induced mice; sRANKL-treated mice)	circulating RANKL and CTX-1 levels (sRANKL-induced mice; sRANKL-treated mice sera)	MAPK, AKT, src, and GSK-3β phosphorylation (RANK and LGR4 signaling [5])
B1	significantly higher; also recorded: increased the number of TRAP-positive multinucleated cells	numerous resorption pits	a ring of intracellular F-actin filaments in the sealing zone	remarkably reduced	mild osteoporosis was observed	decreased	738.0 ± 19.1	fenestrated trabecular bone and thinner rods forming the trabecular bone	increased	induced	induced	–	–	–	–	–	–	–
B2	–	–	–	–	–	–	–	–	–	–	–	no significant differences	significantly increased	mild osteoporosis	low	an increased number of TRAPpositive osteoclasts	higher	induced
